This experiment deals with TLR4 extracellular domain 24-631 (Homo sapiens, UniProt O00206). Kind of experiment: solid phase binding assay.

One may read the Kd as the concentration at which binding is half-saturated. A low value points to tighter binding.

Chain of TLR4 extracellular domain 24-631 (O00206 24-631): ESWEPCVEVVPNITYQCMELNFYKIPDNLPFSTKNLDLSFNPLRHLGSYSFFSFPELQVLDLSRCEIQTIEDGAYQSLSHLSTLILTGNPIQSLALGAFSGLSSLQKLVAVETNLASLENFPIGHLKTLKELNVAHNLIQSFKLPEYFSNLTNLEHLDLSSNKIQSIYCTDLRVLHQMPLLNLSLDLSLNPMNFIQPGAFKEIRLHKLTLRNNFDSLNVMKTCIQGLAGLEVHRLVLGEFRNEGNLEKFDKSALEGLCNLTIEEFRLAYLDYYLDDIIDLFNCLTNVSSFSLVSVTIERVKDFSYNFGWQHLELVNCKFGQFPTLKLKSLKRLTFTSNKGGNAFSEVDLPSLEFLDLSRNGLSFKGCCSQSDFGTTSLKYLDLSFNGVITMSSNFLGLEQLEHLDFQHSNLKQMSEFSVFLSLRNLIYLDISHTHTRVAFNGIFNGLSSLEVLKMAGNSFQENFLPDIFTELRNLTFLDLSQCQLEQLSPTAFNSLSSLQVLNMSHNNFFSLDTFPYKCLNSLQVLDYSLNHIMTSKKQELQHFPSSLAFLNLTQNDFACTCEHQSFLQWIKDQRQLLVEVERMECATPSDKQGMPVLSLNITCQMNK

B1: Tenascin-W FBG domain (FBG-W) 1060-1300 (protein)
chain: VGARFPHPSDCSQVQQNSNAASGLYTIYLHGDASRPLQVYCDMETDGGGWIVFQRRNTGQLDFFKRWRSYVEGFGDPMKEFWLGLDKLHNLTTGTPARYEVRVDLQTANESAYAIYDFFQVASSKERYKLTVGKYRGTAGDALTYHNGWKFTTFDRDNDIALSNCALTHHGGWWYKNCHLANPNGRYGETKHSEGVNWEPWKGHEFSIPYVELKIRPHGYSREPVLGRKKRTLRGRLRTF
For the molecule B1, the Kd was approximately 55 nM.

B2: Tenascin-R FBG domain (FBG-R) 1128-1359 (protein)
chain: GGRVFPHPQDCAQHLMNGDTLSGVYPIFLNGELSQKLQVYCDMTTDGGGWIVFQRRQNGQTDFFRKWADYRVGFGNVEDEFWLGLDNIHRITSQGRYELRVDMRDGQEAAFASYDRFSVEDSRNLYKLRIGSYNGTAGDSLSYHQGRPFSTEDRDNDVAVTNCAMSYKGAWWYKNCHRTNLNGKYGESRHSQGINWYHWKGHEFSIPFVEMKMRPYNHRLMAGRKRQSLQF
B2: the Kd is approximately 55 nM.

Values taken from article PMC5693923 (2017).
